Experiment [1] has as its target T1, CD79 (UniProt P11912 33-143; P40259 29-159, limits assumed).
T1 construct: also called CD79 antigen; soluble biotinylated CD79 antigen
T1 sequence (looked up) 1: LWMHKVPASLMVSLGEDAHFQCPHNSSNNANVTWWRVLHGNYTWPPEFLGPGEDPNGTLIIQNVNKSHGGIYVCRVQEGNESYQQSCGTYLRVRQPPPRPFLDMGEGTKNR
T1 sequence (looked up) 2: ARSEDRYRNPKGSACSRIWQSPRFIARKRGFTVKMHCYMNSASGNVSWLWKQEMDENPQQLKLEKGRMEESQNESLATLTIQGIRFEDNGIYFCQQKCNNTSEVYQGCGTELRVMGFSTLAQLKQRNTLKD
Nature of the experiment: binding kinetics to CD79; method not named (antibody is the 'Loading Sample').

Experiment [2] concerns the target T1, CD79. Nature of the experiment: antigen binding kinetics; method not named (antibody is the 'Loading Sample').
Experiment [3] deals with T1, CD79. The experiment in a line: binding kinetics of full length IgG to CD79; method not named (antibody is the 'Loading Sample').

The source of these data is patent EP4796567A2 (Nepenthe Bioscience, LLC, dated 2026).

Residue numbers refer to the chain shown, from its start.

As usually defined, the Kd is the concentration at which binding is half-saturated. What is called koff is the first-order rate constant of dissociation. The low end stands for a long-lived complex, the high end for a short-lived complex. The kon is the second-order rate constant of association. The low end stands for slow association, the high end for fast association.

B1: humanized anti-CD79 antibody H1L2 (antibody, V domains shown)
VH: QVQLVQSGAEVKKPGASVKVSCKASGYAFSYSWMNWVRQAPGQGLEWMGRIYPENGDTNYNGKFKGRVTMTRDTSISTAYMELSRLRSDDTAVYYCARWVYGYPHFDYWGQGTLVTVSS
VL: DVVMTQSPLSLPVTLGQPASISCKSSQSLLDSDGKTYLNWLQQRPGQSPRRLIYLVSKLDSGVPDRFSGSGSGTDFTLKISRVEAEDVGVYYCWQGTHFPFTFGGGTKVEIK
notes: also called LB495/PRI47; PRI43/PRI47
As to B1, in experiment [1], the Kd was 45 nM, the koff was 0.0041 s⁻¹ and the kon turned out to be 91000 M⁻¹ s⁻¹. For the same molecule, in experiment [2], the affinity, expressed as Kd, was 9.22 nM; the koff is 0.000384 s⁻¹; the kon was determined as 41700 M⁻¹ s⁻¹. In experiment [3], this molecule came in with a Kd of 5.1 nM, a koff of 0.000429 s⁻¹ and a kon of 84100 M⁻¹ s⁻¹.

B2: engineered anti-CD79 antibody LB630/519 (antibody, V domains shown)
VH: B1 VH with N55S, Y103L
VL: B1 VL with F99L
notes: First NG motif of VH CDR2 engineered to NS; Produced in 293 cells by transient transfection; also called LB630/LB519
In experiment [2], B2 gave a Kd of less than 0.001 nM, a koff of less than 1e-07 s⁻¹ and a kon of 55800 M⁻¹ s⁻¹.

B3: humanized anti-CD79 antibody H1L1 (antibody, V domains shown)
VH: B1 VH
VL: B1 VL with L41F
In experiment [1], B3 yielded a Kd of 59 nM, a koff of 0.0054 s⁻¹ and a kon of 92000 M⁻¹ s⁻¹.

B4: humanized anti-CD79 antibody H2L3 (antibody, V domains shown)
VH: B1 VH with R72A
VL: B1 VL with R50K
Turning to B4, in experiment [1], binding was put at a Kd of 61 nM, the koff amounted to 0.0051 s⁻¹ and the kon turned out to be 84000 M⁻¹ s⁻¹.

B5: humanized anti-CD79 antibody H3L1 (antibody, V domains shown)
VH: B1 VH with M48I, M70L, R72A, T74K
VL: B1 VL with L41F
For the molecule B5, in experiment [1], the Kd was 290 nM, the koff came out at 0.013 s⁻¹ and the kon was 43000 M⁻¹ s⁻¹.

B6: affinity matured anti-CD79 antibody LB517/521 (antibody, V domains shown)
VH: B1 VH with Y103L
VL: B1 VL with F99V
notes: Full length IgG produced from 293 cells; also called LB517/LB521
In experiment [3], B6 had a Kd of 2.3 nM, a koff of 0.000201 s⁻¹ and a kon of 87500 M⁻¹ s⁻¹.

B7: humanized anti-CD79 antibody H2L1 (antibody, V domains shown)
VH: B1 VH with R72A
VL: B1 VL with L41F
In experiment [1], B7 registered a Kd of 90 nM, a koff of 0.0071 s⁻¹ and a kon of 79000 M⁻¹ s⁻¹.

B8: humanized anti-CD79 antibody H3L2 (antibody, V domains shown)
VH: B1 VH with M48I, M70L, R72A, T74K
VL: B1 VL
On to B8, for which, in experiment [1], the affinity, expressed as Kd, was 140 nM; the koff is 0.0086 s⁻¹; the association rate constant (kon) is 61000 M⁻¹ s⁻¹.

B9: affinity matured anti-CD79 antibody LB495/520 (antibody, V domains shown)
VH: B1 VH
VL: B1 VL with F99R
notes: Full length IgG produced from 293 cells; also called LB495/LB520
Consider B9, for which, in experiment [3], the Kd was found to be 3.76 nM, the koff was 0.000374 s⁻¹ and the kon was 99600 M⁻¹ s⁻¹.

B10: affinity matured anti-CD79 antibody LB517/518 (antibody, V domains shown)
VH: B1 VH with Y103L
VL: B1 VL with F99I
notes: Full length IgG produced from 293 cells; also called LB517/LB518
For the molecule B10, in experiment [3], the affinity, expressed as Kd, was 2.24 nM; the koff was determined as 0.000199 s⁻¹; the kon worked out at 88500 M⁻¹ s⁻¹.

B11: engineered anti-CD79 antibody LB632/519 (antibody, V domains shown)
VH: B1 VH with N55S, N61A, Y103L
VL: B1 VL with F99L
notes: Both NG motifs of VH CDR2 engineered; Produced in 293 cells by transient transfection; also called LB632/LB519
Regarding B11, in experiment [2], the Kd was found to be 0.837 nM, the koff was found to be 5.11e-05 s⁻¹ and the on-rate (kon) was 61000 M⁻¹ s⁻¹.

B12: affinity matured anti-CD79 antibody LB517/PRI47 (antibody, V domains shown)
VH: B1 VH with Y103L
VL: B1 VL
notes: Full length IgG produced from 293 cells
In experiment [3], B12 showed a dissociation constant Kd of 3.55 nM, an off-rate (koff) of 0.000311 s⁻¹ and a kon of 87500 M⁻¹ s⁻¹.

B13: humanized anti-CD79 antibody LB517/LB519 (antibody, V domains shown)
VH: B1 VH with Y103L
VL: B1 VL with F99L
notes: Full length IgG produced from 293 cells; also called hCur14 FALA
In experiment [2], B13 yielded a Kd of 0.706 nM, a koff of 4.14e-05 s⁻¹ and a kon of 58700 M⁻¹ s⁻¹. Further, in experiment [3], the affinity, expressed as Kd, was 2 nM; the koff was determined as 0.000159 s⁻¹; the kon was determined as 79700 M⁻¹ s⁻¹.

B14: humanized anti-CD79 antibody H3L3 (antibody, V domains shown)
VH: B1 VH with M48I, M70L, R72A, T74K
VL: B1 VL with R50K
As for B14, in experiment [1], the Kd amounted to 130 nM, the koff worked out at 0.011 s⁻¹ and the kon is 79000 M⁻¹ s⁻¹.

B15: affinity matured anti-CD79 antibody LB517/520 (antibody, V domains shown)
VH: B1 VH with Y103L
VL: B1 VL with F99R
notes: Full length IgG produced from 293 cells; also called LB517/LB520
Take B15: in experiment [3], binding was put at a Kd of 2.4 nM, the koff stood at 0.000234 s⁻¹ and the kon amounted to 97800 M⁻¹ s⁻¹.

B16: humanized anti-CD79 antibody H2L2 (antibody, V domains shown)
VH: B1 VH with R72A
VL: B1 VL
In experiment [1], B16 yielded a Kd of 46 nM, a koff of 0.0046 s⁻¹ and a kon of 100000 M⁻¹ s⁻¹.

B17: affinity matured anti-CD79 antibody LB495/519 (antibody, V domains shown)
VH: B1 VH
VL: B1 VL with F99L
notes: Full length IgG produced from 293 cells; also called LB495/LB519
In experiment [3], B17 gave a Kd of 3.14 nM, a koff of 0.000252 s⁻¹ and a kon of 80300 M⁻¹ s⁻¹.

B18: affinity matured anti-CD79 antibody LB495/521 (antibody, V domains shown)
VH: B1 VH
VL: B1 VL with F99V
notes: Full length IgG produced from 293 cells; also called LB495/LB521
In the case of B18, in experiment [3], the Kd came to 3.65 nM, the koff came out at 0.000362 s⁻¹ and the kon was found to be 99100 M⁻¹ s⁻¹.

B19: engineered anti-CD79 antibody LB631/519 (antibody, V domains shown)
VH: B1 VH with N61A, Y103L
VL: B1 VL with F99L
notes: Second NG motif of VH CDR2 engineered to NA; Produced in 293 cells by transient transfection; also called LB631/LB519
In experiment [2], B19 showed a Kd of 1.04 nM, a koff of 6.1e-05 s⁻¹ and a kon of 58600 M⁻¹ s⁻¹.

B20: affinity matured anti-CD79 antibody LB495/518 (antibody, V domains shown)
VH: B1 VH
VL: B1 VL with F99I
notes: Full length IgG produced from 293 cells; also called LB495/LB518
Take B20: in experiment [3], the Kd came to 3.64 nM, the koff came to 0.000332 s⁻¹ and the kon came to 91200 M⁻¹ s⁻¹.

B21: humanized anti-CD79 antibody H1L3 (antibody, V domains shown)
VH: B1 VH
VL: B1 VL with R50K
Consider B21, for which, in experiment [1], the Kd amounted to 49 nM, the koff came out at 0.004 s⁻¹ and the kon came to 82000 M⁻¹ s⁻¹.

B22: chimeric anti-CD79 antibody HcLc (antibody, V domains shown)
VH: QVQLQQSGPELVKPGASVKISCKASGYAFSYSWMNWVKQRPGKGLEWIGRIYPENGDTNYNGKFKGKVTLTADKSSSTAYMQLSSLTSEDSAVYFCARWVYGYPHFDYWGQGTTLTVSS
VL: not shown
notes: Mouse VH fused to human IgG2 CH1, CH2 and CH3 domains; mouse VL fused to a human kappa CL domain
For B22, in experiment [1], the Kd was found to be 60 nM, the koff came to 0.0056 s⁻¹ and the kon came out at 93000 M⁻¹ s⁻¹.
